Measured values as given in the supplement of paper PMC9170038.

Test system: MS2 coat protein
Experiment: apparent KD of MS2 coat protein; designed switch direction (-1 OFF switch, 1 ON switch): -1; higher = weaker reporter binding
Summary of the method: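 Apparent KD, taken as the median over clusters for each design, was obtained by curve-fitting normalised cluster fluorescence. Designed RNA switches had been transcribed on Illumina chips by stalled E. coli RNA polymerase and titrated with SNAP-549-labelled MS2 coat protein, doubling from 0.7 or 1.5 nM to 3 µM.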

[1] = Eterna round: R95, input ligand: microRNA oligo, concentration not stated
[2] = input ligand: microRNA oligo, concentration not stated

Row | Sequence | apparent KD of MS2 coat protein [1] | apparent KD of MS2 coat protein (input ligand: FMN 200 uM) | apparent KD of MS2 coat protein (input ligand: none) | apparent KD of MS2 coat protein [2]
1 | ACCUCACAUGAGGAUCACCCAUGUCAGGAUAUACAAACCGUGAUAAGACACGGUCGUAGUAGAAGGGACUAUGG [Xerereonte] (puzzle: Exclusion 1) | 98.8 nM | – | – | –
2 | AGGUGUAGAGGAUAUCUCUUCUCUCACAUGAGGAUCACCCAUGUCCUAAAGACCAAGGAGAGAGAAGGCUACACCA [Omei Ex5 D6] (Eterna round: R97, puzzle: Exclusion 5) | – | 42 nM | 41.8 nM | –
3 | UUGUUAUAUGUAGGAUAUGCAUAUUGUUAUUAUGCAGAAGGACAUGAGGAUCACCCAUGUAUAUUAUUAUUAUAUAUUAUAUAU [Title] (Eterna round: R96, puzzle: Exclusion NG 1) | – | – | – | 22.5 nM
4 | ACGAUGACAGAAAGAAGUCAAAAGACAUGAGGAUCACCCAUGUAGGAUAUGGCUACGAAAAGUAGUCAGAAGGACUUGUCAUCA [Omei Exc(NG) 3 Av2] (Eterna round: R96, puzzle: Exclusion NG 3) | – | 13.1 nM | 14.3 nM | 9.48 nM
5 | GAAUAGGCAGGAUAUACAUGAGGAUCACCCAUGUGCUUGCGAUCGGCAAGCGAACAACGUAGAAGGGCCUUAAC [ChP 13.04.2015 #13] (puzzle: Exclusion 3) | 15.8 nM | – | – | –
6 | CCGGCGGUAGGAUAUACAAUUGUAAAAGGCAGGUGGUGUCAACAUGAGGAUCACCCAUGUAGAAGGACCUUAAA [EX2 C.26] (Eterna round: R97, puzzle: Exclusion 2) | – | 38.4 nM | 22.4 nM | –
7 | CCGACGUGAGGAUAUCCAUCUGGAUCAGACAAGAUCCUGAUGGAGAAGGCACAUGAGGAUCACCCAUGUUACGG [Mat - Exclusion 4 - Eli Mod - D59] (Eterna round: R97, puzzle: Exclusion 4) | – | 738 nM | 412 nM | –
8 | UAACAGUAAGGAUAUCCAGAUCCAGACAUGAGGAUCACCCAUGUCAAAUACCUUUGACACGGAGAAGGUACGAAAA [EX5 A.26] (Eterna round: R97, puzzle: Exclusion 5) | – | 53.2 nM | 51.9 nM | –
9 | AGCGAAUAGACAGGAUAUGAGAAUAGAUAGAGCUCAGAAGGGUCACAUGAGGAUCACCCAUGUGAAGUCUUGAGGCUGCGUGGU [Prohibition 18 - Jieux - Exclusion NG 1] (Eterna round: R96, puzzle: Exclusion NG 1) | – | 13.1 nM | 16.1 nM | 13.4 nM
10 | AGUGUGUCAGGAUAUUCUAUUAAUUACAUGAGGAUCACCCAUGUGAAUGGACAAGGGUGUGAAGAAGGGACGUGCG [Omei Ex5 A17e] (Eterna round: R97, puzzle: Exclusion 5) | – | 211 nM | 381 nM | –
11 | ACGGGUAAGUAAGGAUAUCCAACAGGCUGAUUUCAGUCUGAACAUGAGGAUCACCCAUGUGGGUGGGAGAAGGUACUCUCCCGC [Atbienarza] (Eterna round: R96, puzzle: Exclusion NG 2) | – | 107 nM | 114 nM | 86.3 nM
12 | AGGUGUAGGUAAGGAUAUAUCUAAAACCACAUGAGGAUCACCCAUGUAGCGGGUAUCUUCGUGAGAUAGAAGGUGCACGCCGAA [Atbiasori] (Eterna round: R96, puzzle: Exclusion NG 2) | – | 494 nM | 308 nM | 269 nM
13 | CCCAGUUAGAGAGGAUAUCGUACAUGAGGAUCACCCAUGUAAUAAAUGAGGAUUUCGGGUGUCUACGAGAAGGCUCGGAUAGGC [Ostracism 30 - Jieux - Exclusion NG 2] (Eterna round: R96, puzzle: Exclusion NG 2) | – | 75.8 nM | 35.9 nM | 27.1 nM
14 | UUUGUAUAUGAAGGAUAUACUUAACAUGAGGAUCACCCAUGUGGUGUUGUGAGUGAGUGAGUUUAGUAGAAGGUCAAUUCUUUU [JMF's solution 92] (Eterna round: R96, puzzle: Exclusion NG 2) | – | 651 nM | 434 nM | 417 nM
